{
  "source": "patent US9260728B2",
  "about": "“Terpene synthases from Santalum” (UNIVERSITY OF BRITISH COLUMBIA, priority 2009, dated 2016)",
  "molecules": {"B1": {"name": "SauSSy: santalene synthase from Santalum austrocaledonicum, gene SEQ ID NO:3, protein SEQ ID NO:4 (protein, listed as Santalum austrocaledonicum)", "chain": "MDSSTATAMTAPFIDPTDHVNLKTDTDASENRRMGNYKPSIWNYDFLQSLATHHNIVEERHLKLAEKLKGQVKFMFGAPMEPLAKLELVDVVQRLGLNHRFETEIKEALFSIYKDESNGWWFGHLHATSLRFRLLRQCGLFIPQDVFKTFQNKTGEFDMKLCDNVKGLLSLYEASYLGWKGENILDEAKAFATKYLKSAWENISEKWLAKRVKHALALPLHWRVPRIEARWFIEAYEQEANMNPTLLKLAKLDFNMVQSIHQKEIGELARWWVTTGLDKLAFARNNLLQSYMWSCAIASDPKFKLARETIVEIGSVLTVVDDAYDVYGSMDELDLYTSSVERWSCVEIDKLPNTLKLIFMSMFNKTNEVGLRVQHERGYNSIPTFIKAWVQQCKSYQKEARWFHGGHTPPLEEYSLNGLVSIGFPLLLITGYVAIAENEAALDKVHPLPDLLHYSSLLSRLINDIGTSPDEMARGDNLKSIHCYMNGTGASEEVAREHIKGVIEENWKILNQCCFDQSQFQEPFITFNLNSVRGSHFFYEFGDGFGVTDSWTKVDMKSVLIDPIPLGEE", "modifications": "SauSSy Protein"}},
  "assay_type_in_all_cases": "biochemical",
  "key": {"[1]": {"assay": "GC-FID determination of reaction products of terpene synthases from FPP with magnesium or manganese", "method": "Enzyme assays for all recombinant proteins were done in triplicate using the GC vial method described by O'Maille et al. (Anal. Biochem. 335:[…] (2004). For enzyme assays where only product identification was needed, 10 μg of protein was used in a final volume of 500 μL of reaction buffer (25 mM HEPES, 10% glycerol, 5 mM DTT and 10 mM of either Mg^2+ or Mn^2+. Substrates (FPP and GPP) were added to a final reaction concentration of 100 μM. Vials were overlaid with 500 μL of hexane to trap volatile products and incubated at 30° C. for 2 h. Mixtures were vortexed for 1 min to extract all volatiles and the vials were centrifuged to separate the organic layer.\nProduct mixtures were analysed by GC-MS in scan mode for product identification. A standard containing the three santalenes and α-trans-bergamotene was prepared by flash chromatography of 2 mL of neat S. album oil over silica and eluted in hexane. A final yield of 25 mg was resuspended in EtOAc and purity was confirmed by GC-FID with conditions described below. All mass spectra were compared to the NIST 2005 library and the literature. Retention indices were determined for all compounds using an n-alkane standard and compared to the literature (R. P. Adams, “Identification of essential oil components by gas chromatography/mass spectrometry,” Allured Publishing Corporation, Carol Stream, Ill. (1995)).\n(§1) GC-FID was performed on a Shimadzu GC2010 with a 30 m 0.25 mm ID, 0.25 μm film DB-WAX column with He as the carrier gas. Splitless injection (2 μL) was used for all analyses. Conditions were as follows: injector 200° C., detector 250° C., column flow rate 1 mL/min. Oven program: 40° C. for 3 min, then 8° C./min to 180° C., held 5 min, then 10° C./min to 220° C., held 10 min. Needle height was adjusted to only draw from the upper organic layer of all sample vials. GC-MS was performed on a Shimadzu GC2010 with the same DB-WAX column and using He as the carrier gas. Conditions were as follows: injector 200° C., MS interface 240° C., ion source 200° C. Oven program: 40° C. for 3 min, then 8° C./min to 180° C., held 5 min, then 10° C./min to 220° C., held 10 min. Solvent cut time was set to 5 min. For product identification, total ion monitoring was used, scanning from m/z 45 to m/z 300. For kinetic assays, single ion monitoring of the sesquiterpene base ions m/z 91, 93 and 94 were used. Likewise monoterpene base ions (m/z 69, 71 and 93) were monitored. An internal standard (isobutyl benzene, 30 μM) was added to the hexane used to overlay each reaction. Detector response factors were calculated based on the santalene standard prepared earlier and used to determine the product concentrations for kinetic analysis."}, "[2]": {"assay": "Steady-state enzyme kinetic assays", "method": "For determination of steady-state enzyme kinetic constants, conditions were as described previously except the enzyme concentration was kept at 10 nM. Substrate concentrations ranged from 1 uM to 100 uM, and reactions were incubated at 30° C. for exactly 5 mins. Reactions were quenched by the addition of 500 μL 0.5 M EDTA, pH 8.0 and vortexed as above.\nas §1"}, "[3]": {"assay": "GC-FID determination of reaction products of terpene synthases from FPP with magnesium or manganese", "remark": "listed apart in the source"}},
  "data": [
    {"molecule": "B1", "values": [
      {"measurement": "E-β-farnesene among reaction products (GC-FID)", "setting": "[1]; FPP Mg, mean", "value": 1.4},
      {"measurement": "Z-β-farnesene among reaction products (GC-FID)", "setting": "[1]; FPP Mg, mean", "value": 0.6},
      {"measurement": "epi-β-santalene among reaction products (GC-FID)", "setting": "[1]; FPP Mg, mean", "value": 4.8},
      {"measurement": "α-E-bergamotene among reaction products (GC-FID)", "setting": "[1]; FPP Mg, mean", "value": 14.5},
      {"measurement": "α-santalene among reaction products (GC-FID)", "setting": "[1]; FPP Mg, mean", "value": 51.3},
      {"measurement": "β-santalene among reaction products (GC-FID)", "setting": "[1]; FPP Mg, mean", "value": 27.4},
      {"measurement": "E-β-farnesene among reaction products (GC-FID)", "setting": "[1]; FPP Mg, replicate 1", "value": 1.5},
      {"measurement": "Z-β-farnesene among reaction products (GC-FID)", "setting": "[1]; FPP Mg, replicate 1", "value": 0.6},
      {"measurement": "epi-β-santalene among reaction products (GC-FID)", "setting": "[1]; FPP Mg, replicate 1", "value": 4.7},
      {"measurement": "α-E-bergamotene among reaction products (GC-FID)", "setting": "[1]; FPP Mg, replicate 1", "value": 13.8},
      {"measurement": "α-santalene among reaction products (GC-FID)", "setting": "[1]; FPP Mg, replicate 1", "value": 51.7},
      {"measurement": "β-santalene among reaction products (GC-FID)", "setting": "[1]; FPP Mg, replicate 1", "value": 27.8},
      {"measurement": "E-β-farnesene among reaction products (GC-FID)", "setting": "[1]; FPP Mg, replicate 2", "value": 1.3},
      {"measurement": "Z-β-farnesene among reaction products (GC-FID)", "setting": "[1]; FPP Mg, replicate 2", "value": 0.6},
      {"measurement": "epi-β-santalene among reaction products (GC-FID)", "setting": "[1]; FPP Mg, replicate 2", "value": 4.6},
      {"measurement": "α-E-bergamotene among reaction products (GC-FID)", "setting": "[1]; FPP Mg, replicate 2", "value": 14.6},
      {"measurement": "α-santalene among reaction products (GC-FID)", "setting": "[1]; FPP Mg, replicate 2", "value": 51.5},
      {"measurement": "β-santalene among reaction products (GC-FID)", "setting": "[1]; FPP Mg, replicate 2", "value": 27.5},
      {"measurement": "E-β-farnesene among reaction products (GC-FID)", "setting": "[1]; FPP Mg, replicate 3", "value": 1.5},
      {"measurement": "Z-β-farnesene among reaction products (GC-FID)", "setting": "[1]; FPP Mg, replicate 3", "value": 0.5},
      {"measurement": "epi-β-santalene among reaction products (GC-FID)", "setting": "[1]; FPP Mg, replicate 3", "value": 5.1},
      {"measurement": "α-E-bergamotene among reaction products (GC-FID)", "setting": "[1]; FPP Mg, replicate 3", "value": 15.2},
      {"measurement": "α-santalene among reaction products (GC-FID)", "setting": "[1]; FPP Mg, replicate 3", "value": 50.7},
      {"measurement": "β-santalene among reaction products (GC-FID)", "setting": "[1]; FPP Mg, replicate 3", "value": 27.0},
      {"measurement": "E-β-farnesene among reaction products (GC-FID)", "setting": "[1]; FPP Mn, mean", "value": 8.5},
      {"measurement": "Z-β-farnesene among reaction products (GC-FID)", "setting": "[1]; FPP Mn, mean", "value": 0.9},
      {"measurement": "epi-β-santalene among reaction products (GC-FID)", "setting": "[1]; FPP Mn, mean", "value": 1.2},
      {"measurement": "α-E-bergamotene among reaction products (GC-FID)", "setting": "[1]; FPP Mn, mean", "value": 73.6},
      {"measurement": "α-santalene among reaction products (GC-FID)", "setting": "[1]; FPP Mn, mean", "value": 10.2},
      {"measurement": "β-santalene among reaction products (GC-FID)", "setting": "[1]; FPP Mn, mean", "value": 5.3},
      {"measurement": "E-β-farnesene among reaction products (GC-FID)", "setting": "[1]; FPP Mn, replicate 1", "value": 8.3},
      {"measurement": "Z-β-farnesene among reaction products (GC-FID)", "setting": "[1]; FPP Mn, replicate 1", "value": 0.9},
      {"measurement": "epi-β-santalene among reaction products (GC-FID)", "setting": "[1]; FPP Mn, replicate 1", "value": 1.4},
      {"measurement": "α-E-bergamotene among reaction products (GC-FID)", "setting": "[1]; FPP Mn, replicate 1", "value": 72.5},
      {"measurement": "α-santalene among reaction products (GC-FID)", "setting": "[1]; FPP Mn, replicate 1", "value": 10.3},
      {"measurement": "β-santalene among reaction products (GC-FID)", "setting": "[1]; FPP Mn, replicate 1", "value": 5.3},
      {"measurement": "E-β-farnesene among reaction products (GC-FID)", "setting": "[1]; FPP Mn, replicate 2", "value": 8.5},
      {"measurement": "Z-β-farnesene among reaction products (GC-FID)", "setting": "[1]; FPP Mn, replicate 2", "value": 0.9},
      {"measurement": "epi-β-santalene among reaction products (GC-FID)", "setting": "[1]; FPP Mn, replicate 2", "value": 0.8},
      {"measurement": "α-E-bergamotene among reaction products (GC-FID)", "setting": "[1]; FPP Mn, replicate 2", "value": 73.8},
      {"measurement": "α-santalene among reaction products (GC-FID)", "setting": "[1]; FPP Mn, replicate 2", "value": 10.5},
      {"measurement": "β-santalene among reaction products (GC-FID)", "setting": "[1]; FPP Mn, replicate 2", "value": 5.5},
      {"measurement": "E-β-farnesene among reaction products (GC-FID)", "setting": "[1]; FPP Mn, replicate 3", "value": 8.6},
      {"measurement": "Z-β-farnesene among reaction products (GC-FID)", "setting": "[1]; FPP Mn, replicate 3", "value": 0.9},
      {"measurement": "epi-β-santalene among reaction products (GC-FID)", "setting": "[1]; FPP Mn, replicate 3", "value": 1.2},
      {"measurement": "α-E-bergamotene among reaction products (GC-FID)", "setting": "[1]; FPP Mn, replicate 3", "value": 74.4},
      {"measurement": "α-santalene among reaction products (GC-FID)", "setting": "[1]; FPP Mn, replicate 3", "value": 9.7},
      {"measurement": "β-santalene among reaction products (GC-FID)", "setting": "[1]; FPP Mn, replicate 3", "value": 5.1},
      {"measurement": "Relative % composition in oil produced by enzyme: E-α-bergamotol", "setting": "[1]; GC-FID", "value": 14.5, "unit": "%"},
      {"measurement": "Relative % composition in oil produced by enzyme: β-santalol", "setting": "[1]; GC-FID", "value": 27.4, "unit": "%"},
      {"measurement": "Kcat", "setting": "[2]; FPP", "value": 0.0277, "unit": "s⁻¹"},
      {"measurement": "Vmax", "setting": "[2]; assays using FPP", "value": 0.54, "unit": "µM/min"},
      {"measurement": "Relative % composition in oil produced by enzyme: epi-β-santalol", "setting": "[3]", "value": 4.8, "unit": "%"},
      {"measurement": "Relative % composition in oil produced by enzyme: α-santalol", "setting": "[3]", "value": 51.3, "unit": "%"}
    ]}
  ]
}
